Reference: paper PMC12102759 (2025)

B1: RNF115 peptide 69-84 (E3 ubiquitin-protein ligase RNF115), 16-mer library wild type / MDM2 SWIB (MDM2 SWIB/MDM2 domain, residues 17-125) (parent complex)
chain 1: THFAELWGHLDHTMFF
chain 2: SQIPASEQETLVRPKPLLLKLLKSVGAQKDTYTMKEVLFYLGQYIMTKRLYDEKQQHIVYCSNDLLGDLFGVPSFSVKEHRKIYTMIYRNLVVVNQQESSDSGTSVSEN

Variants of: B1
Assay: proteomic peptide phage display deep mutational scan (ProP-PD DMS): M13 P8 16-mer library selected against immobilised GST-tagged bait for four days (rounds), NGS of the eluted pools per day and pseudo-replica; bait immobilised on MaxiSorp plates (10 µg), library pre-cleared on GST, 2 h binding at 4 °C, five washes; one round per day, days 1-4; value from days 2 and 3

Row | Variant | screen value
1 | chain 1 L10V | 0.000492 average fractional NGS count over selection days 2 and 3 (reads of this peptide / all reads for the bait, averaged over …
2 | chain 1 L10I | 0.00104 average fractional NGS count over selection days 2 and 3 (reads of this peptide / all reads for the bait, averaged over …
3 | chain 1 L10F | 0.00105 average fractional NGS count over selection days 2 and 3 (reads of this peptide / all reads for the bait, averaged over …
4 | chain 1 F3T | 9.19e-05 average fractional NGS count over selection days 2 and 3 (reads of this peptide / all reads for the bait, averaged over …
5 | chain 1 F3Q | 0.000412 average fractional NGS count over selection days 2 and 3 (reads of this peptide / all reads for the bait, averaged over …
6 | chain 1 G8W | 0.000927 average fractional NGS count over selection days 2 and 3 (reads of this peptide / all reads for the bait, averaged over …
7 | chain 1 G8Y | 0.00157 average fractional NGS count over selection days 2 and 3 (reads of this peptide / all reads for the bait, averaged over …
8 | chain 1 G8M | 0.00018 average fractional NGS count over selection days 2 and 3 (reads of this peptide / all reads for the bait, averaged over …
9 | chain 1 G8H | 0.00286 average fractional NGS count over selection days 2 and 3 (reads of this peptide / all reads for the bait, averaged over …
10 | chain 1 G8R | 0.000199 average fractional NGS count over selection days 2 and 3 (reads of this peptide / all reads for the bait, averaged over …
11 | chain 1 G8A | 0.000308 average fractional NGS count over selection days 2 and 3 (reads of this peptide / all reads for the bait, averaged over …
12 | chain 1 H9R | 0.00234 average fractional NGS count over selection days 2 and 3 (reads of this peptide / all reads for the bait, averaged over …
13 | chain 1 H9N | 0.00523 average fractional NGS count over selection days 2 and 3 (reads of this peptide / all reads for the bait, averaged over …
14 | chain 1 H9I | 0.00113 average fractional NGS count over selection days 2 and 3 (reads of this peptide / all reads for the bait, averaged over …
15 | chain 1 H9T | 0.00161 average fractional NGS count over selection days 2 and 3 (reads of this peptide / all reads for the bait, averaged over …
16 | chain 1 H9V | 0.00147 average fractional NGS count over selection days 2 and 3 (reads of this peptide / all reads for the bait, averaged over …
17 | chain 1 H9G | 0.00212 average fractional NGS count over selection days 2 and 3 (reads of this peptide / all reads for the bait, averaged over …
18 | chain 1 D11Y | 0.000538 average fractional NGS count over selection days 2 and 3 (reads of this peptide / all reads for the bait, averaged over …
19 | chain 1 D11E | 0.000686 average fractional NGS count over selection days 2 and 3 (reads of this peptide / all reads for the bait, averaged over …
20 | chain 1 D11T | 0.000142 average fractional NGS count over selection days 2 and 3 (reads of this peptide / all reads for the bait, averaged over …
21 | chain 1 D11M | 0.000791 average fractional NGS count over selection days 2 and 3 (reads of this peptide / all reads for the bait, averaged over …
22 | chain 1 D11P | 0.000507 average fractional NGS count over selection days 2 and 3 (reads of this peptide / all reads for the bait, averaged over …
23 | chain 1 D11L | 0.000447 average fractional NGS count over selection days 2 and 3 (reads of this peptide / all reads for the bait, averaged over …
24 | chain 1 D11A | 0.0112 average fractional NGS count over selection days 2 and 3 (reads of this peptide / all reads for the bait, averaged over …
25 | chain 1 D11S | 0.00405 average fractional NGS count over selection days 2 and 3 (reads of this peptide / all reads for the bait, averaged over …

Row | Variant | screen value
26 | chain 1 M14P | 0.00244 average fractional NGS count over selection days 2 and 3 (reads of this peptide / all reads for the bait, averaged over …
27 | chain 1 M14W | 0.00207 average fractional NGS count over selection days 2 and 3 (reads of this peptide / all reads for the bait, averaged over …
28 | chain 1 M14D | 0.00118 average fractional NGS count over selection days 2 and 3 (reads of this peptide / all reads for the bait, averaged over …
29 | chain 1 M14Y | 0.00313 average fractional NGS count over selection days 2 and 3 (reads of this peptide / all reads for the bait, averaged over …
30 | chain 1 M14N | 0.00152 average fractional NGS count over selection days 2 and 3 (reads of this peptide / all reads for the bait, averaged over …
31 | chain 1 M14H | 0.0015 average fractional NGS count over selection days 2 and 3 (reads of this peptide / all reads for the bait, averaged over …
32 | chain 1 M14Q | 0.000925 average fractional NGS count over selection days 2 and 3 (reads of this peptide / all reads for the bait, averaged over …
33 | chain 1 T1Y | 0.000395 average fractional NGS count over selection days 2 and 3 (reads of this peptide / all reads for the bait, averaged over …
34 | chain 1 T1V | 0.00156 average fractional NGS count over selection days 2 and 3 (reads of this peptide / all reads for the bait, averaged over …
35 | chain 1 T1G | 0.000168 average fractional NGS count over selection days 2 and 3 (reads of this peptide / all reads for the bait, averaged over …
36 | chain 1 T1M | 0.0023 average fractional NGS count over selection days 2 and 3 (reads of this peptide / all reads for the bait, averaged over …
37 | chain 1 H12G | 0.0011 average fractional NGS count over selection days 2 and 3 (reads of this peptide / all reads for the bait, averaged over …
38 | chain 1 H12D | 0.00032 average fractional NGS count over selection days 2 and 3 (reads of this peptide / all reads for the bait, averaged over …
39 | chain 1 H12P | 0.000332 average fractional NGS count over selection days 2 and 3 (reads of this peptide / all reads for the bait, averaged over …
40 | chain 1 H12T | 0.00036 average fractional NGS count over selection days 2 and 3 (reads of this peptide / all reads for the bait, averaged over …
41 | chain 1 H12M | 0.00543 average fractional NGS count over selection days 2 and 3 (reads of this peptide / all reads for the bait, averaged over …
42 | chain 1 H12Q | 0.000843 average fractional NGS count over selection days 2 and 3 (reads of this peptide / all reads for the bait, averaged over …
43 | chain 1 F15W | 0.00256 average fractional NGS count over selection days 2 and 3 (reads of this peptide / all reads for the bait, averaged over …
44 | chain 1 F15D | 0.00754 average fractional NGS count over selection days 2 and 3 (reads of this peptide / all reads for the bait, averaged over …
45 | chain 1 F15Y | 0.00151 average fractional NGS count over selection days 2 and 3 (reads of this peptide / all reads for the bait, averaged over …
46 | chain 1 F15Q | 0.0113 average fractional NGS count over selection days 2 and 3 (reads of this peptide / all reads for the bait, averaged over …
47 | chain 1 T13H | 0.00485 average fractional NGS count over selection days 2 and 3 (reads of this peptide / all reads for the bait, averaged over …
48 | chain 1 T13R | 0.00097 average fractional NGS count over selection days 2 and 3 (reads of this peptide / all reads for the bait, averaged over …
49 | chain 1 T13D | 0.00412 average fractional NGS count over selection days 2 and 3 (reads of this peptide / all reads for the bait, averaged over …
50 | chain 1 T13M | 0.000376 average fractional NGS count over selection days 2 and 3 (reads of this peptide / all reads for the bait, averaged over …

Row | Variant | screen value
51 | chain 1 T13Y | 0.00269 average fractional NGS count over selection days 2 and 3 (reads of this peptide / all reads for the bait, averaged over …
52 | chain 1 T13A | 0.00106 average fractional NGS count over selection days 2 and 3 (reads of this peptide / all reads for the bait, averaged over …
53 | chain 1 T13V | 0.0019 average fractional NGS count over selection days 2 and 3 (reads of this peptide / all reads for the bait, averaged over …
54 | chain 1 H2D | 0.00139 average fractional NGS count over selection days 2 and 3 (reads of this peptide / all reads for the bait, averaged over …
55 | chain 1 H2S | 0.0241 average fractional NGS count over selection days 2 and 3 (reads of this peptide / all reads for the bait, averaged over …
56 | chain 1 H2R | 0.000186 average fractional NGS count over selection days 2 and 3 (reads of this peptide / all reads for the bait, averaged over …
57 | chain 1 H2V | 0.00468 average fractional NGS count over selection days 2 and 3 (reads of this peptide / all reads for the bait, averaged over …
58 | chain 1 H2W | 0.000523 average fractional NGS count over selection days 2 and 3 (reads of this peptide / all reads for the bait, averaged over …
59 | chain 1 H2N | 0.000593 average fractional NGS count over selection days 2 and 3 (reads of this peptide / all reads for the bait, averaged over …
60 | chain 1 H2A | 0.000678 average fractional NGS count over selection days 2 and 3 (reads of this peptide / all reads for the bait, averaged over …
61 | chain 1 E5D | 0.00488 average fractional NGS count over selection days 2 and 3 (reads of this peptide / all reads for the bait, averaged over …
62 | chain 1 E5N | 0.000269 average fractional NGS count over selection days 2 and 3 (reads of this peptide / all reads for the bait, averaged over …
63 | chain 1 E5T | 0.000518 average fractional NGS count over selection days 2 and 3 (reads of this peptide / all reads for the bait, averaged over …
64 | chain 1 E5Y | 0.000681 average fractional NGS count over selection days 2 and 3 (reads of this peptide / all reads for the bait, averaged over …
65 | chain 1 E5A | 0.000481 average fractional NGS count over selection days 2 and 3 (reads of this peptide / all reads for the bait, averaged over …
66 | chain 1 E5W | 0.00018 average fractional NGS count over selection days 2 and 3 (reads of this peptide / all reads for the bait, averaged over …
67 | chain 1 A4T | 0.000121 average fractional NGS count over selection days 2 and 3 (reads of this peptide / all reads for the bait, averaged over …
68 | chain 1 A4W | 0.000398 average fractional NGS count over selection days 2 and 3 (reads of this peptide / all reads for the bait, averaged over …
69 | chain 1 A4M | 0.000942 average fractional NGS count over selection days 2 and 3 (reads of this peptide / all reads for the bait, averaged over …
70 | chain 1 A4S | 0.00536 average fractional NGS count over selection days 2 and 3 (reads of this peptide / all reads for the bait, averaged over …
71 | chain 1 A4V | 0.000584 average fractional NGS count over selection days 2 and 3 (reads of this peptide / all reads for the bait, averaged over …
72 | chain 1 A4F | 0.000182 average fractional NGS count over selection days 2 and 3 (reads of this peptide / all reads for the bait, averaged over …
73 | chain 1 A4E | 0.000667 average fractional NGS count over selection days 2 and 3 (reads of this peptide / all reads for the bait, averaged over …
74 | chain 1 L6A | 0.00179 average fractional NGS count over selection days 2 and 3 (reads of this peptide / all reads for the bait, averaged over …
75 | chain 1 L6F | 0.00096 average fractional NGS count over selection days 2 and 3 (reads of this peptide / all reads for the bait, averaged over …
